From patent US20210388105A1 (ELPISCIENCE SUZHOU BIOPHARMA, published 2021) come the findings set out here.

This experiment addresses T1, mouse CD39 (full length, on CHOK1-mCD39 cells) (mouse, UniProt P55772 1-510).
T1 construct: whole, on cells
T1 sequence (looked up): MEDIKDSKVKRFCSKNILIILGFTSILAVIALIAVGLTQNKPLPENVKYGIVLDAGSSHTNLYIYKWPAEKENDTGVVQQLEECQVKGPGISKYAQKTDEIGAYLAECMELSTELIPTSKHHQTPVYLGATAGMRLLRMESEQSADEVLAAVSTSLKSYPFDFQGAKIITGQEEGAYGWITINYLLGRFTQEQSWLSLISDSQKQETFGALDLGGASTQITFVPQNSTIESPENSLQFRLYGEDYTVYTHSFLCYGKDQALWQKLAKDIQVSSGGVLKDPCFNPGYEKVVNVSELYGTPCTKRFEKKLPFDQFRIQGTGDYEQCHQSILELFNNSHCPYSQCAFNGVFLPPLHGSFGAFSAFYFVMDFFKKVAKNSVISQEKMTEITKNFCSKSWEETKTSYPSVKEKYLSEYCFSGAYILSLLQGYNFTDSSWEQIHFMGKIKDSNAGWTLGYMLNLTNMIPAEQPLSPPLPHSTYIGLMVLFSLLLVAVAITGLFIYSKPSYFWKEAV
The experiment in a line: FACS on CHO-k1/mCD39 cells, MFI [Continued) E].

B1: hu23.H5L5 (antibody, V domains shown)
VH: QVQLVQSGAEVKKPGASVKVSCKASGYNLKDTFLHWVRQAPGQGLEWMGRIDPANGNIKYDPKFQGRVTITADTSANTAYMELISLRSEDTAVYYCANSPYYYGSGYRIFDVWGQGTTVTVSS
VL: QIVLTQSPATLSLSPGERATLSCSAFSSVNYMHWYQQKPGQAPRLLIYTTSNLASGIPTRFSGSGSGTSYTLTISSLEPEDFAVYYCQQRSTYPFTFGQGTKLEIK
notes: humanized c23
Regarding B1, the binding result was “no binding”.
